In experiment [1] the target is L66C (single-Cys mutant of FT-HT-Xa) (S. cerevisiae) (UniProt D6VTK4). Put plainly: cross-linking.
For experiment [2] the target is unchanged. The experiment can be described thus: cross-linking. This is another data set of the same source.
Experiment [3] has the same target. The experiment can be described thus: SDS-PAGE and western blot of membranes. (Immunoblotting shows a protein as a band on a membrane.)
Experiment [4] has the same target. Put plainly: cross-linking. This is another data set of the same source.
In experiment [5] the target is T279C (single-Cys mutant of FT-HT-Xa) (S. cerevisiae) (UniProt D6VTK4). Put plainly: cross-linking.
Experiment [6] shares this target. The experiment can be described thus: cross-linking. The source holds these as a separate data set.
The target is the same in experiment [7]. Put plainly: SDS-PAGE and western blot of membranes.
Experiment [8] shares this target. Put plainly: cross-linking. The source holds these as a separate data set.
The target of experiment [9] is I67C (single-Cys mutant of FT-HT-Xa) (S. cerevisiae) (UniProt D6VTK4). Put plainly: cross-linking.
Experiment [10] has the same target. The experiment can be described thus: cross-linking. The source holds these as a separate data set.
Experiment [11] shares this target. The experiment can be described thus: SDS-PAGE and western blot of membranes.
The target is the same in experiment [12]. The experiment can be described thus: cross-linking. This is another data set of the same source.
Experiment [13] has as its target A296C (single-Cys mutant of FT-HT-Xa) (S. cerevisiae) (UniProt D6VTK4). The experiment can be described thus: radioligand binding.
Experiment [14] has as its target I67C (single-Cys mutant of FT-HT-Xa) (S. cerevisiae) (UniProt D6VTK4). Put plainly: radioligand binding.
Experiment [15] deals with L283C (single-Cys mutant of FT-HT-Xa) (S. cerevisiae) (UniProt D6VTK4). Put plainly: radioligand binding.
Experiment [16] has as its target L284C (single-Cys mutant of FT-HT-Xa) (S. cerevisiae) (UniProt D6VTK4). Put plainly: radioligand binding.
Experiment [17] addresses L287C (single-Cys mutant of FT-HT-Xa) (S. cerevisiae) (UniProt D6VTK4). The experiment can be described thus: radioligand binding.
Experiment [18] addresses L289C (single-Cys mutant of FT-HT-Xa) (S. cerevisiae) (UniProt D6VTK4). Put plainly: radioligand binding.
Experiment [19] concerns the target L291C (single-Cys mutant of FT-HT-Xa) (S. cerevisiae) (UniProt D6VTK4). Put plainly: radioligand binding.
Experiment [20] has as its target L64C (single-Cys mutant of FT-HT-Xa) (S. cerevisiae) (UniProt D6VTK4). Put plainly: radioligand binding.
In experiment [21] the target is L66C (single-Cys mutant of FT-HT-Xa) (S. cerevisiae) (UniProt D6VTK4). Put plainly: radioligand binding.
The target in experiment [22] is S288C (single-Cys mutant of FT-HT-Xa) (S. cerevisiae) (UniProt D6VTK4). Put plainly: radioligand binding.
Experiment [23] addresses S292C (single-Cys mutant of FT-HT-Xa) (S. cerevisiae) (UniProt D6VTK4). Put plainly: radioligand binding.
Experiment [24] has as its target S293C (single-Cys mutant of FT-HT-Xa) (S. cerevisiae) (UniProt D6VTK4). The experiment can be described thus: radioligand binding.
For experiment [25], the target named is T65C (single-Cys mutant of FT-HT-Xa) (S. cerevisiae) (UniProt D6VTK4). Put plainly: radioligand binding.
The target in experiment [26] is V286C (single-Cys mutant of FT-HT-Xa) (S. cerevisiae) (UniProt D6VTK4). Put plainly: radioligand binding.
Experiment [27] concerns the target V68C (single-Cys mutant of FT-HT-Xa) (S. cerevisiae) (UniProt D6VTK4). The experiment can be described thus: radioligand binding.
In experiment [28] the target is W295C (single-Cys mutant of FT-HT-Xa) (S. cerevisiae) (UniProt D6VTK4). Put plainly: radioligand binding.
For experiment [29], the target named is V68C (single-Cys mutant of FT-HT-Xa) (S. cerevisiae) (UniProt D6VTK4). The experiment can be described thus: cross-linking.
Experiment [30] has the same target. Put plainly: cross-linking. This is another data set of the same source.
The target is the same in experiment [31]. Put plainly: SDS-PAGE and western blot of membranes.
For experiment [32] the target is unchanged. Put plainly: cross-linking. This is another data set of the same source.
In experiment [33] the target is M69C (single-Cys mutant of FT-HT-Xa) (S. cerevisiae) (UniProt D6VTK4). The experiment can be described thus: cross-linking.
The target is the same in experiment [34]. Put plainly: cross-linking. The source holds these as a separate data set.
For experiment [35] the target is unchanged. The experiment can be described thus: SDS-PAGE and western blot of membranes.
Experiment [36] has the same target. Put plainly: cross-linking. This is another data set of the same source.
Experiment [37] concerns the target T278C (single-Cys mutant of FT-HT-Xa) (S. cerevisiae) (UniProt D6VTK4). The experiment can be described thus: cross-linking.
The target is the same in experiment [38]. Put plainly: cross-linking. The source holds these as a separate data set.
For experiment [39] the target is unchanged. Put plainly: SDS-PAGE and western blot of membranes.
Experiment [40] shares this target. Put plainly: cross-linking. The source holds these as a separate data set.

Take “L66C (single-Cys mutant of FT-HT-Xa) (from UniProt D6VTK4 1-431) (receptor)”: the percent dimer amounted to 13.2% in experiment [1], 11.9% in [2], 12.3% in [3] and 11.9% in experiment [4].

For the substance “T279C (single-Cys mutant of FT-HT-Xa) (from UniProt D6VTK4 1-431) (receptor)”, the percent dimer stood at 15.8% in [5], 10.9% in experiment [6], 17.3% in [7] and 10.1% in [8].

“I67C (single-Cys mutant of FT-HT-Xa) (from UniProt D6VTK4 1-431) (receptor)”: the percent dimer came out at 17.4% in experiment [9], 18% in experiment [10], 19.3% in experiment [11] and 17% in experiment [12].

In the case of “Tritiated α-factor ([3H]α-factor) (peptide)”, the Kd relative to FT-HT-Xa (relative to FT-HT-Xa) in experiment [13] worked out at 0.4; in experiment [14] it was 2.2; in [15], 4.7; in experiment [16] it was 1.1; in experiment [17], 1.1; in [18], 2.1. Also, the Kd relative to FT-HT-Xa (relative to FT-HT-Xa) in experiment [19] worked out at 1.7; in experiment [20] it was 2.5; in experiment [21] it was 0.5; in experiment [22] it was 4.1; in experiment [23], 0.2; in experiment [24], 2.5. Also, the Kd relative to FT-HT-Xa (relative to FT-HT-Xa) in experiment [25] was 1.5; in experiment [26], 1.9; in experiment [27], 1.1; in [28], 1.3.

Take “V68C (single-Cys mutant of FT-HT-Xa) (from UniProt D6VTK4 1-431) (receptor)”: the percent dimer in [29] was 98.3%; in experiment [30] it was 98.8%; in [31] it was 28.5%; in experiment [32], 99.2%.

Consider “M69C (single-Cys mutant of FT-HT-Xa) (from UniProt D6VTK4 1-431) (receptor)”, for which the percent dimer is 17% in experiment [33], 28.9% in experiment [34], 17.7% in experiment [35] and 14.2% in [36].

With “T278C (single-Cys mutant of FT-HT-Xa) (from UniProt D6VTK4 1-431) (receptor)”, the percent dimer came to 12.5% in [37], 12.4% in experiment [38], 15.1% in [39] and 65.8% in [40].

These data come from publication PMC2783235.
